Test results reported in article PMC9520026, “Densely methylated DNA traps Methyl-CpG–binding domain protein 2 but permits free diffusion by Methyl-CpG–binding domain protein 3”.

Columns and labels:
MBD3sc [1] = biological target: T1, MBD3sc (human, UniProt O95983 1-249+Q86YP4:137-178, internal_change); test: fluorescence anisotropy; FA: 50 mM Hepes pH 7.5, 100 mM NaCl, 1 mM MgCl2, 10 nM DNA, temperature not stated; SPR: 50 mM Hepes pH 7.5, 150 mM NaCl, 1 mM MgCl2, 1 mM TCEP, 0.05% Tween-20; NMR: 10 mM NaPO4 pH 6.5, 150 mM NaCl, 1 mM DTT, 10% 2H2O, 25 C; details: protein: recombinant; tags: N-terminal thioredoxin-His6-TEV site (removal stated only for NMR); label: 5' 6-FAM on strand 1; blunt
T1 sequence (O95983 other isoform, or with tags, fused parts or gaps): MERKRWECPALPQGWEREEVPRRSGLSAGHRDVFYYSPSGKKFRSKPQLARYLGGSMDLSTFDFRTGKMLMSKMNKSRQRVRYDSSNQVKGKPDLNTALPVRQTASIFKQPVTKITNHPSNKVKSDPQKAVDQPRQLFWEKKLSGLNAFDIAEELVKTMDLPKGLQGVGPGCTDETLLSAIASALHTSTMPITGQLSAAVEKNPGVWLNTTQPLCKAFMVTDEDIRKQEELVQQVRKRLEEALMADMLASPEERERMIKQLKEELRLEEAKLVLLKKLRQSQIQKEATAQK

MBD2sc [2] = biological target: T2, MBD2sc (human, UniProt Q9UBB5 150-393+Q86YP4:137-178, internal_change); test: as above; details: protein: recombinant; tags: N-terminal thioredoxin-His6-TEV site (removal stated only for NMR); label: 5' 6-FAM on strand 1; blunt
T2 sequence (Q9UBB5 other isoform, or with tags, fused parts or gaps): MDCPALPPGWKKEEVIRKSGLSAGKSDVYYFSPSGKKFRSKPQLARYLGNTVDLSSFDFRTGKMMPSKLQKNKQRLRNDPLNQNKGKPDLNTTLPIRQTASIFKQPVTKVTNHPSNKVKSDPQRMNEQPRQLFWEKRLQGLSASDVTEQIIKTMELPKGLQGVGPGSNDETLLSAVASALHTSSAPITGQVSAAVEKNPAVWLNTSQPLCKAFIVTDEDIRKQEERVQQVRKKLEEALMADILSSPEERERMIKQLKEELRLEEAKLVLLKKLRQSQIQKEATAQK

MBD3sc [3] = biological target: T1, MBD3sc; test: SPR; FA: 50 mM Hepes pH 7.5, 100 mM NaCl, 1 mM MgCl2, 10 nM DNA, temperature not stated; SPR: 50 mM Hepes pH 7.5, 150 mM NaCl, 1 mM MgCl2, 1 mM TCEP, 0.05% Tween-20; NMR: 10 mM NaPO4 pH 6.5, 150 mM NaCl, 1 mM DTT, 10% 2H2O, 25 C; details: protein: recombinant; tags: N-terminal thioredoxin-His6-TEV site (removal stated only for NMR); blunt
MBD2sc [4] = biological target: T2, MBD2sc; test: as above; details: protein: recombinant; tags: N-terminal thioredoxin-His6-TEV site (removal stated only for NMR); blunt
[5] = biological target: T3, MBD2sc (2H,15N, tag cleaved) (human, UniProt Q9UBB5 150-393+Q86YP4:137-178, internal_change); test: NMR; FA: 50 mM Hepes pH 7.5, 100 mM NaCl, 1 mM MgCl2, 10 nM DNA, temperature not stated; SPR: 50 mM Hepes pH 7.5, 150 mM NaCl, 1 mM MgCl2, 1 mM TCEP, 0.05% Tween-20; NMR: 10 mM NaPO4 pH 6.5, 150 mM NaCl, 1 mM DTT, 10% 2H2O, 25 C; details: protein: recombinant; tags: none (thioredoxin-His6 removed by TEV); blunt
T3 sequence (Q9UBB5 other isoform, or with tags, fused parts or gaps): as above

[6] = biological target: T3, MBD2sc (2H,15N, tag cleaved); test: NMR; fast exchange between both sites; FA: 50 mM Hepes pH 7.5, 100 mM NaCl, 1 mM MgCl2, 10 nM DNA, temperature not stated; SPR: 50 mM Hepes pH 7.5, 150 mM NaCl, 1 mM MgCl2, 1 mM TCEP, 0.05% Tween-20; NMR: 10 mM NaPO4 pH 6.5, 150 mM NaCl, 1 mM DTT, 10% 2H2O, 25 C; details: protein: recombinant; tags: none (thioredoxin-His6 removed by TEV); blunt

B1: 17 bp CpG-free FAM (dsDNA)
DNA 1: CTGGCCCCAGGGCCCTC
DNA 2: GAGGGCCCTGGGGCCAG
Kd (MBD3sc [1]): 14200 ± 300 nM | Kd (MBD2sc [2]): 9100 ± 400 nM

B2: 17 bp CpG FAM (unmethylated) (dsDNA)
DNA 1: CTGCCGCCGAGCGCCTC
DNA 2: GAGGCGCTCGGCGGCAG
Kd (MBD3sc [1]): 8100 ± 400 nM | Kd (MBD2sc [2]): 2800 ± 100 nM

B3: 17 bp mCpG FAM (dsDNA)
DNA 1: CTGCCGCCGAGCGCCTC
DNA 2: GAGGCGCTCGGCGGCAG
modifications: 5-methylcytosine at C8 of strand 1 and C9 of strand 2 (symmetric)
Kd (MBD3sc [1]): 5900 ± 400 nM | Kd (MBD2sc [2]): 7 ± 2 nM

B4: 17 bp CpG biotin (SPR) (dsDNA)
DNA 1: CTGCCGCCGAGCGCCTC
DNA 2: GAGGCGCTCGGCGGCAG
Kd (MBD3sc [3]): 1020 ± 10 nM | Kd (MBD2sc [4]): 1240 ± 80 nM

B5: 17 bp mCpG biotin (SPR) (dsDNA)
DNA 1: CTGCCGCCGAGCGCCTC
DNA 2: GAGGCGCTCGGCGGCAG
modifications: 5-methylcytosine at C8 of strand 1 and C9 of strand 2
Kd (MBD3sc [3]): 1200 ± 200 nM | Kd (MBD2sc [4]): 11 ± 1 nM

B6: 38 bp, first CpG methylated (dsDNA)
DNA 1: GGAGGCGCTCGGCGGCAGCCTGGAACGGAATTCTTCTA
DNA 2: TAGAAGAATTCCGTTCCAGGCTGCCGCCGAGCGCCTCC
modifications: 5-methylcytosine at C10 of strand 1 and C28 of strand 2
binding result [5]: binds

B7: 38 bp, both CpG methylated (dsDNA)
DNA 1: B6 DNA 1
DNA 2: B6 DNA 2
modifications: 5-methylcytosine at C10, C26 of strand 1 and C12, C28 of strand 2
binding result [6]: binds

B8: 38 bp, second CpG methylated (dsDNA)
DNA 1: B6 DNA 1
DNA 2: B6 DNA 2
modifications: 5-methylcytosine at C26 of strand 1 and C12 of strand 2
binding result [5]: binds
